One experiment deals with Sla2 ANTH domain (S. cerevisiae), wild type. The experiment can be described thus: DLS. Particulars: complexes assembled in the presence of PIP2; parent: est. 100; read off a plot.
In the case of “Ent1 ENTH domain (S. cerevisiae), wild type (from UniProt Q12518) E54A; D57A; D60A”, the response was determined as 100 % mass. Take “Ent1 ENTH domain (S. cerevisiae), wild type (from UniProt Q12518) Y100R”: the response was 37 % mass. Consider “Ent1 ENTH domain (S. cerevisiae), wild type (from UniProt Q12518) E107A”, for which the response was 75 % mass.

Another experiment has as its target Ent1 ENTH domain (S. cerevisiae), wild type (UniProt Q12518). Put plainly: DLS. Conditions: complexes assembled in the presence of PIP2; parent: est. 100; read off a plot.
UniProt Q12518, sequence (Q12518 whole entry, looked up, the tested form may be a part): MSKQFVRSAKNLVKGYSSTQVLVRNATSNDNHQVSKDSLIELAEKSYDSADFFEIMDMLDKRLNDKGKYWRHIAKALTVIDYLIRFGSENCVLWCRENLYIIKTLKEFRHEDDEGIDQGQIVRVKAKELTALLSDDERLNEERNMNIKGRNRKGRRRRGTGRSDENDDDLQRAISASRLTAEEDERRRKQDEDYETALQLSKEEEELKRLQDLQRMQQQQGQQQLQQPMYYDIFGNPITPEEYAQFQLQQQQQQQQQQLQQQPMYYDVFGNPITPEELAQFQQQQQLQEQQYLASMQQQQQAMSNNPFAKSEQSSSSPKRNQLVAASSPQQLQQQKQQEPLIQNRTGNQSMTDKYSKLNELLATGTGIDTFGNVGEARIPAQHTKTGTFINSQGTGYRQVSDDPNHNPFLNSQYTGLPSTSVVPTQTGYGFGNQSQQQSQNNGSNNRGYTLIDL
Turning to “Sla2 ANTH domain (S. cerevisiae), wild type R3A”, the response stood at 21 % mass.

For “Sla2 ANTH domain (S. cerevisiae), wild type K10A; K13A; K14A”, the response worked out at 28 % mass. Consider “Sla2 ANTH domain (S. cerevisiae), wild type R25A”, for which the response was 32 % mass.

With “Sla2 ANTH domain (S. cerevisiae), wild type Q9A; K10A”, the response came to 100 % mass. “Sla2 ANTH domain (S. cerevisiae), wild type R29A”: the response is 27 % mass. As for “Sla2 ANTH domain (S. cerevisiae), wild type R3A; I4A; D37R”, the response was determined as 100 % mass.

For the origin of these results see PMC8129110.
